Patent publication US20050089523A1

Assays:
[1] = target: anti-VCAM-1•tTF coaguligand (anti-VCAM-1 antibody MK2.7 covalently linked through SMPT to truncated tissue factor, one antibody to one tTF, Mr 180,000) (human) (UniProt P13726); experiment: 125I-labeled 10H10 bound to anti-VCAM-1•tTF-treated, IL-1alpha-activated bEnd.3 cells, at saturation
[2] = target: murine vascular endothelial adhesion molecule-1 (VCAM-1) (murine) (UniProt P29533); experiment: bEnd.3 cells treated with coaguligand, detected with 125I-labeled 10H10; attributed to constitutive VCAM-1 expression
[3] = target: murine vascular endothelial adhesion molecule-1 (VCAM-1) (murine) (UniProt P29533); experiment: cell-based or functional assay

Sequence of UniProt P29533 (P29533 25-739): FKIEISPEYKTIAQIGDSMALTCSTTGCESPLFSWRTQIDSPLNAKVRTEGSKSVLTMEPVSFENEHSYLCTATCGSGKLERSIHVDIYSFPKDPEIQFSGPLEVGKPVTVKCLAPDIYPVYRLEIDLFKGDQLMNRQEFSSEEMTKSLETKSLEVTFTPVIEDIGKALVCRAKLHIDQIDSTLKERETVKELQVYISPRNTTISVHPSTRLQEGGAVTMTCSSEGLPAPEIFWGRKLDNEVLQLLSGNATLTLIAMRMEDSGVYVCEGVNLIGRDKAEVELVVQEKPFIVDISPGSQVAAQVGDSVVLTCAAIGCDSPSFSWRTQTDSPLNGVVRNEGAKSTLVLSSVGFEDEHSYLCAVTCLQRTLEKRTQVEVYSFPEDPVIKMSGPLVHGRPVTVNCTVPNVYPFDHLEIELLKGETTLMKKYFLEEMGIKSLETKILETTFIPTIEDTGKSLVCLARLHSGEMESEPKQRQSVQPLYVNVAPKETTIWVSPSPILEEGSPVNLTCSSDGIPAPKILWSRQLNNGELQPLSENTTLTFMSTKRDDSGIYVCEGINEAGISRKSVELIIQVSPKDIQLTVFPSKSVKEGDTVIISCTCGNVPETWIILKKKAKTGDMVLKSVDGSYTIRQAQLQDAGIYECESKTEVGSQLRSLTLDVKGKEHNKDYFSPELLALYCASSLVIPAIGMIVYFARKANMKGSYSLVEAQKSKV

Row | amount of anti-TF antibody bound at saturation [1] | molecules of anti-TF antibody bound per cell (molecules per cell) [1] | binding to unstimulated cells relative to activated cells [2] | Generation of Factor Xa by anti-VCAM-1•tTF bound to intact, IL-1α-stimulated bEnd.3 cells (ng per 10^4 cells per 60 min.) [3] | Generation of Factor Xa by anti-VCAM-1•tTF bound to intact, unstimulated (control) bEnd.3 cells (ng per 10^4 cells per 60 min.) [3] | Generation of Factor Xa by anti-VCAM-1•tTF bound to saponin-permeabilized, IL-1α-stimulated bEnd.3 cells (ng per 10^4 cells per 60 min.) [3] | Generation of Factor Xa by anti-VCAM-1•tTF bound to saponin-permeabilized, unstimulated (control) bEnd.3 cells (ng per 10^4 cells per 60 min.) [3] | Substance
1 | 8.7 fmol | 540000 | – | – | – | – | – | 10H10, mouse monoclonal antibody against human tissue factor
2 | – | – | 0.5 | 3.17 | 1.64 | 98.8 | 49.2 | anti-VCAM-1•tTF coaguligand (anti-VCAM-1 antibody MK2.7 covalently linked through SMPT to truncated tissue factor, one antibody to one tTF, Mr 180,000) (from UniProt P13726 33-251)
